Measurements taken from paper PMC4241754.

Molecular target: WlbA from Thermus thermophilus (Thermus thermophilus)
Assay: crystal structure

WlbA from Thermus thermophilus (enzyme)
stoichiometry N: 4
